Results on two substances are retold here after US20110165116A1.

The target of assay [1] is CCR2 (mouse) (UniProt P51683). The assay can be described thus: cell-based or functional assay.
The target of assay [2] is ICAM-1-Fc (Homo sapiens (Human)) (UniProt P05362). Kind of assay: laminar flow adhesion assay, human T cells on coated ICAM-1-Fc.
Chain of UniProt P05362 (P05362 28-480 limits assumed): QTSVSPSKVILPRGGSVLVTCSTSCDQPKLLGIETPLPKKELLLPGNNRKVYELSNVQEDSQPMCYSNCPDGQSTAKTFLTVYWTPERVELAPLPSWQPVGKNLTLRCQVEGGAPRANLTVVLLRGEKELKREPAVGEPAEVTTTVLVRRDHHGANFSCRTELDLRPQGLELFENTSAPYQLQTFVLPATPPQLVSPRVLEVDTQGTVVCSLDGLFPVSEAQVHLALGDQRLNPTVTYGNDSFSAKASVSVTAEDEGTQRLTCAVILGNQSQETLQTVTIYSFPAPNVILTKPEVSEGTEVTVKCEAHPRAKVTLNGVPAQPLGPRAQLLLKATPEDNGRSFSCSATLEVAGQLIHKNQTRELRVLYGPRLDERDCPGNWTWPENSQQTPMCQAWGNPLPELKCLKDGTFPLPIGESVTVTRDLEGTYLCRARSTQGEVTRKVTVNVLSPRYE

Chain of UniProt P51683 (P51683 whole entry): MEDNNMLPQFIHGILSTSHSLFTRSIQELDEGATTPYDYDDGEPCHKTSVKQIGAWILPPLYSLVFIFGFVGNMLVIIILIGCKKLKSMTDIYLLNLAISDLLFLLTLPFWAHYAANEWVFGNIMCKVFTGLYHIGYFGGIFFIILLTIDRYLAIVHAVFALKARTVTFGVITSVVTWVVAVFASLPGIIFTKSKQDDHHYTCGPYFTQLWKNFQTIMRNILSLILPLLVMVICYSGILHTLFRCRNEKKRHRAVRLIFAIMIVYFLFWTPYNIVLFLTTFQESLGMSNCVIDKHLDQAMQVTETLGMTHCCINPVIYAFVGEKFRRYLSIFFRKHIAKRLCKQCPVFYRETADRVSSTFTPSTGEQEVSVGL
Chain of LFA-1 (P20701 26-1170): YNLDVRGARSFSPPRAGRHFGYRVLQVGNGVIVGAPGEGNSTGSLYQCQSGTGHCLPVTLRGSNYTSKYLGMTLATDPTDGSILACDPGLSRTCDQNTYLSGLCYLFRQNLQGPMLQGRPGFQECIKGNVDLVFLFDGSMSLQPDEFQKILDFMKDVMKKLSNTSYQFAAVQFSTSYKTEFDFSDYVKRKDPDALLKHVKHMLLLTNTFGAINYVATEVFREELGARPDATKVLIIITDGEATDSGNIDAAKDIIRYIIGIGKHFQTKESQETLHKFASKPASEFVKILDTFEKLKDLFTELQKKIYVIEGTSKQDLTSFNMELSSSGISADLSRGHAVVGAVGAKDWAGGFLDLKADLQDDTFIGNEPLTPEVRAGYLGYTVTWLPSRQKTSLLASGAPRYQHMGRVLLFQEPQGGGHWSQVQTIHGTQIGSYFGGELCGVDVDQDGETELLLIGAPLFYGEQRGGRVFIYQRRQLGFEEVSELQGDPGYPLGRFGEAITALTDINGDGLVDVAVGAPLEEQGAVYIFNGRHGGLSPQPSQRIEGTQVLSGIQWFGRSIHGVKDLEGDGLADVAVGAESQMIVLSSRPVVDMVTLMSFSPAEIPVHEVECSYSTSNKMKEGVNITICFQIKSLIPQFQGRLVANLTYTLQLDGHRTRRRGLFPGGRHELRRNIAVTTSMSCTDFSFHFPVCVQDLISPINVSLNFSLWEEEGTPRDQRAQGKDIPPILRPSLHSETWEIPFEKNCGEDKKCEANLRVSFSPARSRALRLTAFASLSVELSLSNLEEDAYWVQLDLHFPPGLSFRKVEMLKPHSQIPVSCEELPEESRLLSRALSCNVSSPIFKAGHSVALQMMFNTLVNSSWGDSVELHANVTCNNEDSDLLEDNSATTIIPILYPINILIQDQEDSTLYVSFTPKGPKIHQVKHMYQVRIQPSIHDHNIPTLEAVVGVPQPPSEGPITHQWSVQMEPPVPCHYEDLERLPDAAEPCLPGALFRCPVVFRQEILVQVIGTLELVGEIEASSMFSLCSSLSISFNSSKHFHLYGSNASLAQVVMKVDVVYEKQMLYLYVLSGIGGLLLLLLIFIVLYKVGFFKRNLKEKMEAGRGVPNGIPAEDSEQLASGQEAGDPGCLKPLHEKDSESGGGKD
Chain of LFA-1 (P05107 23-769, further chain): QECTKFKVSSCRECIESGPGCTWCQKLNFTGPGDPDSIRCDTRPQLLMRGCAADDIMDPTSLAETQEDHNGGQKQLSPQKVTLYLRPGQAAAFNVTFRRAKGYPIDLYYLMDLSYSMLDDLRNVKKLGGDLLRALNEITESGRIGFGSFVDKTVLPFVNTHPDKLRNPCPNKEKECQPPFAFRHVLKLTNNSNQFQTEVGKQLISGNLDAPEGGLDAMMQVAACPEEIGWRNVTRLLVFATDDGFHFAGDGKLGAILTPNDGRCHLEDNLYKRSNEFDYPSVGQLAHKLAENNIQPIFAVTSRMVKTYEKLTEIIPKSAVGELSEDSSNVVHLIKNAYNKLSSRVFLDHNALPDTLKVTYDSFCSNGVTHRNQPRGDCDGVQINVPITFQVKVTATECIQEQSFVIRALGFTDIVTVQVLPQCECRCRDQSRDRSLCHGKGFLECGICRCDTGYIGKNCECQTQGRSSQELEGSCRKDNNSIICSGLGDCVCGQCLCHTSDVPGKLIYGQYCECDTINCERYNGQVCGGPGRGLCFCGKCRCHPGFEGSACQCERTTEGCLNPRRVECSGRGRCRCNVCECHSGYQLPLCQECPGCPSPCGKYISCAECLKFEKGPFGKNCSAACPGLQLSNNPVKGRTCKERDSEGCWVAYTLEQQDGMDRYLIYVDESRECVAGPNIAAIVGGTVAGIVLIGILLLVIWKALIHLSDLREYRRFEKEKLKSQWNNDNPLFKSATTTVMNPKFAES

Consider CCL2 (ligand), for which, in assay [1], the decrease in actin polymerization of naive T cells induced by CXCL12 or CCL21 (FITC-phalloidin, FACS) fell in the range of 40 to 50% and the decrease in migration of naive T cells in a Transwell assay towards CXCL12 or CCL21 after pretreatment with CCL2 (0.1 ng/ml) fell in the range of 40 to 50%.
“LFA-1 (from UniProt P20701 26-1170; P05107 23-769) (receptor; other documents disagree on this pair)” gave a percent of cellular tethers to ICAM-1 blocked by LFA-1 blockers in assay [2] of over 90%.
